Laboratory results as given in US20150132813A1, “BIOSYNTHETIC PATHWAYS, RECOMBINANT CELLS, AND METHODS” (REGENTS OF THE UNIVERSITY OF MINNESOTA, priority 2012, published 2015).

Columns and labels:
[1] = tested on: α-ketoglutaric semialdehyde dehydrogenase KDHba; details: substrate of KDHba; from Xiong et al., Sci Rep 2012; cited from earlier work
[2] = target: T1, 3-hydroxypropionaldehyde dehydrogenase AldH (Escherichia coli, UniProt P23883); test: Enzymatic assay of AldH (NADH absorbance at 340 nm); details: substrate of AldH; pH 8.0, 0.5 mM NAD+
T1 sequence (P23883 1-495): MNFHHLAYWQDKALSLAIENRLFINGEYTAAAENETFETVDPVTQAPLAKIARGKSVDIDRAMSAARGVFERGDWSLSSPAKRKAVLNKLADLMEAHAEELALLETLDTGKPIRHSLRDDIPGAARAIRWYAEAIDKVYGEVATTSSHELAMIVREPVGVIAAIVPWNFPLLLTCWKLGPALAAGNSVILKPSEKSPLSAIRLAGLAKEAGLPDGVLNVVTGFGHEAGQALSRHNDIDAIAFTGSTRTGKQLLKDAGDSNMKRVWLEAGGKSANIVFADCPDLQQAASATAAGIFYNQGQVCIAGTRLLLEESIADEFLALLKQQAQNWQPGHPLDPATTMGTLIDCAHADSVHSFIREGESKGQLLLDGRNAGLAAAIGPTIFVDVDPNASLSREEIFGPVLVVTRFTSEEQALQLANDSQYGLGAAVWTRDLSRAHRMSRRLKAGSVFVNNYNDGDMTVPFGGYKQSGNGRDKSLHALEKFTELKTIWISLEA
Protocol: (§1) The kinetic parameters were measured by monitoring the NADH absorbance at 340 nm.
(§2) Enzymatic assay of KDHba consisted of 0.5 mM NAD+ and valeraldehyde in the range of 50 μM to 400 μM in assay buffer (50 mM NaH2PO4, pH 8.0, 1 mM DTT) with a total volume of 78 μL. To start the reaction, 2 μL of 1 M KDHba was added and generation of NADH was monitored at 340 nm (extinction coefficient, 6.22 mM^−1 cm^−1). A similar protocol was used for AldH with 2-Methyl butyraldehyde concentrations in the range of 1 mM to 6 mM.

[3] = target: indolepyruvate decarboxylase (IPDC) (Salmonella enterica, UniProt H9L492); test: Coupled enzymatic assay of IPDC (NADH absorbance at 340 nm); details: substrate of IPDC, pH 6.8
Sequence of indolepyruvate decarboxylase (IPDC) (H9L492 1-550): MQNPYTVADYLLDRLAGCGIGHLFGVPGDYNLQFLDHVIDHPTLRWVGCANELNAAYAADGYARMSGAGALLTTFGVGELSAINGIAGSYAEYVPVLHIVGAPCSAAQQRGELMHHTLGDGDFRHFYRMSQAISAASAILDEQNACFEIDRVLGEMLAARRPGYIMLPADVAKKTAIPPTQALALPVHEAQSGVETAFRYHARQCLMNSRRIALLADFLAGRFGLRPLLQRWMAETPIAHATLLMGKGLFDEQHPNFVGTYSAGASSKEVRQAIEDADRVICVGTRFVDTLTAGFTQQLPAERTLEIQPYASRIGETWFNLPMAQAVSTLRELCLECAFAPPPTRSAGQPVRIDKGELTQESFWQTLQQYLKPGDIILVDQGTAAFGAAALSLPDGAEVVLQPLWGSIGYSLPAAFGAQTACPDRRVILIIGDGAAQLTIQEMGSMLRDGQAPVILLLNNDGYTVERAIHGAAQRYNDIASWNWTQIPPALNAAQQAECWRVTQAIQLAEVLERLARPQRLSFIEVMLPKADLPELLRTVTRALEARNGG
Protocol: as §1
(§3) The kinetic parameters were measured by monitoring the NADH absorbance at 340 nm. The activity of IPDC was measured using a coupled enzymatic assay method.
(§4) The activity of IPDC was measured using a coupled enzymatic assay method. Excess of an appropriate aldehyde dehydrogenase (AldH for 2-Keto-3-methylvalerate and KDHba for 2-Ketocaproate) was used to oxidize aldehyde into acid while cofactor NAD+ was reduced to NADH. The assay mixture contained 0.5 mM NAD+, 0.1 μM appropriate aldehyde dehydrogenase and corresponding 2-keto acid in the range of 1 mM to 8 mM in assay buffer (50 mM NaH2PO4, pH 6.8, 1 mM MgSO4, 0.5 mM ThDP) with a total volume of 78 μL. To start the reaction, 2 μL of 1 μM IPDC was added and generation of NADH was monitored at 340 nm. Kinetic parameters (kcat and KM) were determined by fitting initial rate data to the Michaelis-Menten equation.
CCC(C)C(=O)C(=O)O = test: purified protein, by the assay type; details: other: substrate of IPDC, coupled assay, pH 6.8
Protocol: as §1, §3, §4
CCCCC(=O)C(=O)O = test: purified protein, by the assay type; details: other: substrate of IPDC, coupled assay, pH 6.8
Protocol: as §1, §3, §4

PA1 strain [4] = test: Shake flask fermentation for pentanoic acid production (PA1 strain with pIPA1, pIPA3 and a DC-DH plasmid), HPLC; details: aldehyde dehydrogenase varied, wild-type KIVD as 2-ketoacid decarboxylase; 40 g/L glucose, 48 hours, 30° C.
PA1 strain [5] = test: Shake flask fermentation for 2-methylbutyric acid production (PA1 strain with pIPA1, pIPA2 and a DC-DH plasmid), HPLC; details: aldehyde dehydrogenase varied, wild-type KIVD as 2-ketoacid decarboxylase; 40 g/L glucose, 48 hours, 30° C.
[6] = substrate: CCC(C)C=O; test: purified protein, by the assay type; details: other: substrate of AldH, pH 8.0, 0.5 mM NAD+, 30.0 °C
Protocol: as §1, §2

Which Km [1] does the source give for `CC(C)CC=O` [isovaleraldehyde] here?
The Km was 7.62 mM.

For `CCC(C)C=O` (stereo not drawn) [2-Methyl butyraldehyde, 2-methyl butyraldehyde], which kcat [2] is on record?
Its kcat is 3.55 s⁻¹.

Which kcat [3] does the source give for `CCC(C)C(=O)C(=O)O` (stereo not drawn) [2-Keto-3-methylvalerate, 2-keto-3-methylvalerate] here?
The kcat was 4.13 s⁻¹.

What does the source list for “indolepyruvate decarboxylase (IPDC) (Salmonella enterica subsp. enterica serovar Typhimurium str. LT2)”?
Km (CCC(C)C(=O)C(=O)O): 0.85 mM; kcat (CCC(C)C(=O)C(=O)O): 4.13 ± 0.21 s⁻¹; kcat/Km (CCC(C)C(=O)C(=O)O): 4860 M⁻¹ s⁻¹; Km (CCCCC(=O)C(=O)O): 0.63 mM; kcat (CCCCC(=O)C(=O)O): 1.89 ± 0.06 s⁻¹; kcat/Km (CCCCC(=O)C(=O)O): 3000 M⁻¹ s⁻¹

With “YdcW: γ-aminobutyraldehyde dehydrogenase YdcW from E. coli” as the molecule, how does the pentanoic acid titer (PA1 strain [4]) read?
Its pentanoic acid titer is 0.22 g/L.

What about the 2-methylbutyric acid titer (PA1 strain [5]) of the same molecule?
The 2-methylbutyric acid titer was 0.23 g/L.

For `CCCCC(=O)C(=O)O` [2-Ketocaproate, 2-ketocaproate], which kcat [3] is on record?
The kcat was 1.89 s⁻¹.

With `CC(C)C=O` [isobutyraldehyde] as the molecule, how does the Km [1] read?
The Km was 34.5 mM.

B1: 3-hydroxypropionaldehyde dehydrogenase AldH (Escherichia coli K-12) (protein)
chain: T1 sequence (P23883 1-495)
With B1 as the molecule, how does the Km [6] read?
The Km was 1.89 mM.

What about the kcat [6] of the same molecule?
Its kcat is 3.55 ± 0.17 s⁻¹.

What about the kcat/Km [6] of the same molecule?
The kcat/Km was 1880 M⁻¹ s⁻¹.

What about the pentanoic acid titer (PA1 strain [4]) of the same molecule?
Its pentanoic acid titer is 1.76 g/L.

What about the 2-methylbutyric acid titer (PA1 strain [5]) of the same molecule?
Its 2-methylbutyric acid titer is 2.51 g/L.

B2: PadA: phenylacetaldehyde dehydrogenase PadA from E. coli (protein, UniProt P80668 1-499, looked up)
Phenylacetaldehyde …: MTEPHVAVLSQVQQFLDRQHGLYIDGRPGPAQSEKRLAIFDPATGQEIASTADANEADVDNAVMSAWRAFVSRRWAGRLPAERERILLRFADLVEQHSEELAQLETLEQGKSIAISRAFEVGCTLNWMRYTAGLTTKIAGKTLDLSIPLPQGARYQAWTRKEPVGVVAGIVPWNFPLMIGMWKVMPALAAGCSIVIKPSETTPLTMLRVAELASEAGIPDGVFNVVTGSGAVCGAALTSHPHVAKISFTGSTATGKGIARTAADHLTRVTLELGGKNPAIVLKDADPQWVIEGLMTGSFLNQGQVCAASSRIYIEAPLFDTLVSGFEQAVKSLQVGPGMSPVAQINPLVSRAHCDKVCSFLDDAQAQQAELIRGSNGPAGEGYYVAPTLVVNPDAKLRLTREEVFGPVVNLVRVADGEEALQLANDTEYGLTASVWTQNLSQALEYSDRLQAGTVWVNSHTLIDANLPFGGMKQSGTGRDFGPDWLDGWCETKSVCVRY
For B2, which pentanoic acid titer (PA1 strain [4]) is on record?
The pentanoic acid titer was 2.12 g/L.

And the 2-methylbutyric acid titer (PA1 strain [5])?
Its 2-methylbutyric acid titer is 2.26 g/L.

B3: Al dB: acetaldehyde dehydrogenase AldB from E. coli (protein, UniProt P37685 1-512, looked up)
Aldehyde dehydrogenase B: MTNNPPSAQIKPGEYGFPLKLKARYDNFIGGEWVAPADGEYYQNLTPVTGQLLCEVASSGKRDIDLALDAAHKVKDKWAHTSVQDRAAILFKIADRMEQNLELLATAETWDNGKPIRETSAADVPLAIDHFRYFASCIRAQEGGISEVDSETVAYHFHEPLGVVGQIIPWNFPLLMASWKMAPALAAGNCVVLKPARLTPLSVLLLMEIVGDLLPPGVVNVVNGAGGVIGEYLATSKRIAKVAFTGSTEVGQQIMQYATQNIIPVTLELGGKSPNIFFADVMDEEDAFFDKALEGFALFAFNQGEVCTCPSRALVQESIYERFMERAIRRVESIRSGNPLDSVTQMGAQVSHGQLETILNYIDIGKKEGADVLTGGRRKLLEGELKDGYYLEPTILFGQNNMRVFQEEIFGPVLAVTTFKTMEEALELANDTQYGLGAGVWSRNGNLAYKMGRGIQAGRVWTNCYHAYPAHAAFGGYKQSGIGRETHKMMLEHYQQTKCLLVSYSDKPLGLF
For B3, which pentanoic acid titer (PA1 strain [4]) is on record?
The pentanoic acid titer was 0.42 g/L.

What about the 2-methylbutyric acid titer (PA1 strain [5]) of the same molecule?
Its 2-methylbutyric acid titer is 2.31 g/L.

B4: GabD: succinate semialdehyde dehydrogenase GabD from E. coli (protein, UniProt P25526 1-482, looked up)
Succinate-semialdehyde …: MKLNDSNLFRQQALINGEWLDANNGEAIDVTNPANGDKLGSVPKMGADETRAAIDAANRALPAWRALTAKERATILRNWFNLMMEHQDDLARLMTLEQGKPLAEAKGEISYAASFIEWFAEEGKRIYGDTIPGHQADKRLIVIKQPIGVTAAITPWNFPAAMITRKAGPALAAGCTMVLKPASQTPFSALALAELAIRAGVPAGVFNVVTGSAGAVGNELTSNPLVRKLSFTGSTEIGRQLMEQCAKDIKKVSLELGGNAPFIVFDDADLDKAVEGALASKFRNAGQTCVCANRLYVQDGVYDRFAEKLQQAVSKLHIGDGLDNGVTIGPLIDEKAVAKVEEHIADALEKGARVVCGGKAHERGGNFFQPTILVDVPANAKVSKEETFGPLAPLFRFKDEADVIAQANDTEFGLAAYFYARDLSRVFRVGEALEYGIVGINTGIISNEVAPFGGIKASGLGREGSKYGIEDYLEIKYMCIGL
Which results are given for B4?
pentanoic acid titer (PA1 strain [4]): 0.54 g/L; 2-methylbutyric acid titer (PA1 strain [5]): 0.14 g/L
